{"source": "patent US20230143091A1", "about": "(SORRISO PHARMACEUTICALS, published 2023)", "key": {"[1]": {"target": "T1, IL-7R on human lymphocytes (hPBMCs) (human, UniProt P16871 21-459)", "T1 sequence (looked up)": "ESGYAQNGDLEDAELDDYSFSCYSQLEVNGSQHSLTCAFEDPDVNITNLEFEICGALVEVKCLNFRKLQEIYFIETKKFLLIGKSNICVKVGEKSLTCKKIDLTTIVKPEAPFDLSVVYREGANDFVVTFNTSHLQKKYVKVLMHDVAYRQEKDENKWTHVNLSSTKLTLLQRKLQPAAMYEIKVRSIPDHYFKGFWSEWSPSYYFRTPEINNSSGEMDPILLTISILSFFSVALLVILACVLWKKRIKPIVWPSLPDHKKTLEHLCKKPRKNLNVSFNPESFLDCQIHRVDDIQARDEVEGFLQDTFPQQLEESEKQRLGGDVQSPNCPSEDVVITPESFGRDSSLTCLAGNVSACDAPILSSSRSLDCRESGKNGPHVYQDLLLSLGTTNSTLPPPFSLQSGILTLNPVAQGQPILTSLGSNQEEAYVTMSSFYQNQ", "experiment": "cell-based or functional assay"}, "[2]": {"target": "T2, IL-7R (as used in the IL-7/IL-7R neutralisation ELISA) (UniProt P16871 21-239, limits assumed)", "T2 sequence (looked up)": "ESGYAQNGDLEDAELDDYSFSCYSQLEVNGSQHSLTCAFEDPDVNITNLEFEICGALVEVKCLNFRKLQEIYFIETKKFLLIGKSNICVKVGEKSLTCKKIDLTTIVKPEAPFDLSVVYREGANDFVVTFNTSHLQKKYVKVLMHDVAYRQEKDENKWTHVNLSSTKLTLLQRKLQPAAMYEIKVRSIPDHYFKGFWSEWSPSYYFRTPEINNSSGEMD", "experiment": "IL-7/IL-7R neutralisation ELISA; blocked ligand IL-7, bound IL-7 detected with biotinylated anti-hIL-7 and Extravidin-HRP"}, "human TNFα": {"target": "T3, human TNFα (human, UniProt P01375 77-233)", "T3 construct": "also called TNF-alpha; Tumour necrosis factor-alpha", "T3 sequence (P01375 77-233 limits assumed)": "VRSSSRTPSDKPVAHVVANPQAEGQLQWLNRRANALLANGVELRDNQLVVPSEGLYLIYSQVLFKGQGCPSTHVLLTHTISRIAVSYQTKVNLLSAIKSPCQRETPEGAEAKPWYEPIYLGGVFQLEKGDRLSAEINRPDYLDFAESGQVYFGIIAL", "experiment": "competition ELISA on plate-coated human TNFα; competitor 2 nM biotinylated adalimumab, detected with ExtrAvidin-HRP", "description": "ELISA plates were coated with 100 ng/mL human TNFα in 250 μg/mL bovine serum albumin (BSA) in phosphate buffered saline (1×PBS) and blocked with 1% BSA in 1×PBS."}}}
{"binder": "V7R-2E9 (VHH) VHH: EVQLVESGGGLVQAGGSLRLSCESSISTFSSDAMGWFRQAPGKEREFLAAIGWSGAVTHYSDSVQGRFTISRDNAKNTVYLQMNSLKSEDTGRYYCAEDYDTDVWQYWGQGTQVTVSS", "values": [{"measurement": "IL-7 induced pSTAT5 in hPBMCs EC50 nM", "setting": "[1]", "result": 2.86, "unit": "nM"}]}
{"binder": "ID-A62U (VHH, Produced in S. cerevisiae; Comprises E1D and R45L mutations relative to ID-A40U) VHH: DVQLVESGGGLVQAGGSLRLSCESSISTFSSDAMGWFRQAPGKELEFLAAIGWSGAVTHYSDSVKGRFTISRDNAKNTVYLQMNSLRAEDTGRYYCAEDYDTDVWQYWGQGTQVTVSS", "values": [{"measurement": "IC50 (read off the curve)", "setting": "[2]", "result": "0.1 to 0.2", "unit": "nM"}]}
{"binder": "FU3K bihead (bispecific antibody, Produced in S. cerevisiae; also called pre-digestion FU3K; heterobihead) DVQLVESGGGLVQPGGSLKLSCAASGFDFSSHWMYWVRQAPGKELEWLSEINTNGLITHYGDSVKGRFTVSRNNAANKMYLELTRLEPEDTALYYCARNQHGLNKGQGTQVTVSSGGGGSGGGGSKGGGGSGGGGSEVQLVESGGGLVQAGGSLRLSCESSISTFSSDAMGWFRQAPGKELEFLAAIGWSGAVTHYSDSVKGRFTISRDNAKNTVYLQMNSLRAEDTGRYYCAEDYDTDVWQYWGQGTQVTVSS", "values": [{"measurement": "IC50 (read off the curve)", "setting": "[2]", "result": "~0.2", "unit": "nM"}]}
{"binder": "FU3K after trypsin digestion (other, A mixture of two separate monomers, not a complex; also called post-digestion FU3K; ID-38F and ID-A62U monomer arms released from FU3K) VHH 1: DVQLVESGGGLVQPGGSLKLSCAASGFDFSSHWMYWVRQAPGKELEWLSEINTNGLITHYGDSVKGRFTVSRNNAANKMYLELTRLEPEDTALYYCARNQHGLNKGQGTQVTVSSGGGGSGGGGSK VHH 2: GGGGSGGGGSEVQLVESGGGLVQAGGSLRLSCESSISTFSSDAMGWFRQAPGKELEFLAAIGWSGAVTHYSDSVKGRFTISRDNAKNTVYLQMNSLRAEDTGRYYCAEDYDTDVWQYWGQGTQVTVSS", "values": [{"measurement": "IC50 (read off the curve)", "setting": "[2]", "result": "~0.4", "unit": "nM"}]}
{"binder": "ID-38F (VHH) VHH: DVQLVESGGGLVQPGGSLKLSCAASGFDFSSHWMYWVRQAPGKELEWLSEINTNGLITHYGDSVKGRFTVSRNNAANKMYLELTRLEPEDTALYYCARNQHGLNKGQGTQVTVSS", "values": [{"measurement": "binding result", "setting": "human TNFα", "result": "binds"}]}
